Laboratory results as given in paper PMC3527619.

Tests used:
[1] = target: Microtubules (polymerized Tubulin, Triton-insoluble fraction) of HeLa cells (human (endogenous in HeLa)) (UniProt P68363); test: Triton-X-100 extraction of soluble and insoluble (cytoskeletal) fractions, Western blot and densitometry; HeLa cells transfected with pCGN-Centaurin-α2; 0.1% Triton-X-100 in Pipes pH 6.94, EGTA, MgCl2, 2 M glycerol, 10 min at room temperature; control cells or cells treated with nocodazole (3 µg/ml, 3 h) or cold (4°C, 3 h)
Sequence of UniProt P68363 (P68363 whole entry, chain 1 of 2): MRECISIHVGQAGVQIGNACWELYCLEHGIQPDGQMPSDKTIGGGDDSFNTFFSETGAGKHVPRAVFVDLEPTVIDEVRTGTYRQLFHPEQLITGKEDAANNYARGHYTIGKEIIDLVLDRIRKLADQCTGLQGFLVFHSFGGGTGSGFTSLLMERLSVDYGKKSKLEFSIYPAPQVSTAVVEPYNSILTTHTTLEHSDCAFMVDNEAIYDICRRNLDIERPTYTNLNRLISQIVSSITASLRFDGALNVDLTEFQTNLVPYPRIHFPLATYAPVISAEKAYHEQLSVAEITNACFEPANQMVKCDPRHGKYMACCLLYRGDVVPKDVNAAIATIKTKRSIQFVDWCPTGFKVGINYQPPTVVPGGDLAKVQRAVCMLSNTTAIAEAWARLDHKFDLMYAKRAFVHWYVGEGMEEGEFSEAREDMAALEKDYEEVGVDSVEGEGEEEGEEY
Sequence of UniProt P68363 (P07437 whole entry, chain 2 of 2, further chain): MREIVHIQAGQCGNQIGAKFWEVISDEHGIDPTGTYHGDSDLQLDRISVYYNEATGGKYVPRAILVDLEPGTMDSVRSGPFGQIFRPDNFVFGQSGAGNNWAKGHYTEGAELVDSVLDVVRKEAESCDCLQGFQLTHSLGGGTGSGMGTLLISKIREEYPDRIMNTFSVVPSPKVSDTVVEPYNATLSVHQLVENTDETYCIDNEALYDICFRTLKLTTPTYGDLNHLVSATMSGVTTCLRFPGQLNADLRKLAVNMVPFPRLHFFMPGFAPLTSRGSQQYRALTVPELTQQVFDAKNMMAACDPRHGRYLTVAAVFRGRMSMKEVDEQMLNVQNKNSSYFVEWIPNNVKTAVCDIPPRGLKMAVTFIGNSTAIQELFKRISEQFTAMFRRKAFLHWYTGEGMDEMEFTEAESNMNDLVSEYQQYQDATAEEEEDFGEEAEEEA

[2] = target: Tubulin purified from bovine brain, polymerised to microtubules in vitro (bovine) (UniProt Q6B856); test: co-sedimentation; as a4 (40 µM tubulin plus 5 µM Centaurin-α2, 90 minutes at 37°C), then 30 minutes of incubation on ice before centrifugation (37°C→4°C)
[3] = target: Tubulin purified from bovine brain, polymerised to microtubules in vitro (bovine) (UniProt Q6B856); test: co-sedimentation; 40 µM tubulin plus 5 µM Centaurin-α2, 90 minutes of polymerization at 37°C in 80 mM K-PIPES pH 6.9, 2 mM EGTA, 1 mM MgCl2, 10% glycerol; 16500 g for 30 minutes; supernatant and pellet on SDS-PAGE, Coomassie, densitometry

| Binder | percent of Centaurin-α2 in the Triton-insoluble (MT) fraction [1] | percent of Centaurin-α2 in the MT (pellet) fraction [2] | percent of Centaurin-α2 in the MT (pellet) fraction [3] |
| --- | --- | --- | --- |
| HA (hemoagglutinin)-tagged Centaurin-α2 (pCGN-Centaurin-α2) (natural protein) MGDRERNKKRLLELLRAPDTGNAHCADCGAADPDWASYKLGIFICLNCCGVHRNFPDISRVKSVRLDFWDDSIVEFMIHNGNLRVKAKFEARVPAFYYIPQANDCLVLKEQWIRAKYERREFMADGETISLPGNREGFLWKRGRDNSQFLRRKFVLLAREGLLKYFTKEQGKSPKAVISIKDLNATFQTEKIGHPHGLQITYRRDGHTRNLFVYHESGKEIVDWFNALRAARLQYLKMAFPELPESELVPFLTRNYLKQGFMEKTGPKQKEPFKKRWFALDCHERRLLYYKNPLDAFEQGQVFLGNKEQGYEAYEDLPKGIRGNRWKAGLTIVTPERRFVLTCPSEKEQQEWLESLRGVLSSPLTPLNRLTASTESGRSSR | 80% |  |  |
| His-tagged Centaurin-α2 (recombinant, pET-Centα2) (natural protein) MGDRERNKKRLLELLRAPDTGNAHCADCGAADPDWASYKLGIFICLNCCGVHRNFPDISRVKSVRLDFWDDSIVEFMIHNGNLRVKAKFEARVPAFYYIPQANDCLVLKEQWIRAKYERREFMADGETISLPGNREGFLWKRGRDNSQFLRRKFVLLAREGLLKYFTKEQGKSPKAVISIKDLNATFQTEKIGHPHGLQITYRRDGHTRNLFVYHESGKEIVDWFNALRAARLQYLKMAFPELPESELVPFLTRNYLKQGFMEKTGPKQKEPFKKRWFALDCHERRLLYYKNPLDAFEQGQVFLGNKEQGYEAYEDLPKGIRGNRWKAGLTIVTPERRFVLTCPSEKEQQEWLESLRGVLSSPLTPLNRLTASTESGRSSR |  | 50% | 80% |
